Results from publication PMC3305458, “E2F1 Mediated Apoptosis Induced by the DNA Damage Response Is Blocked by EBV Nuclear Antigen 3C in Lymphoblastoid Cells” (PLoS Pathogens, 2012).

Target: flag-tagged wild-type E2F1 (residues 1–437) (UniProt Q01094 1-437)
Experiment: cell-based or functional assay

Sequence of flag-tagged wild-type E2F1 (residues 1–437) (Q01094 whole entry, the tested form may be a part): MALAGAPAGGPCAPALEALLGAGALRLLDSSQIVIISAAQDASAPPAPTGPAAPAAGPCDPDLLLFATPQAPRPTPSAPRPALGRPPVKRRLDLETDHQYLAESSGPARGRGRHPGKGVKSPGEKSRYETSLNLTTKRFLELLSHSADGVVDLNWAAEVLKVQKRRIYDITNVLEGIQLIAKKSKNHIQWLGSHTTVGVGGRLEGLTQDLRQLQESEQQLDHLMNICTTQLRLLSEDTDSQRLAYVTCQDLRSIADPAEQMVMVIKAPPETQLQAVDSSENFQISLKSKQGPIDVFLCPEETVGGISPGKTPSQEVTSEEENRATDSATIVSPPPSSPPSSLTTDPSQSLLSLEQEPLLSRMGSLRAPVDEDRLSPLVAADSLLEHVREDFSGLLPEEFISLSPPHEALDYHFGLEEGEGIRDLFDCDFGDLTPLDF

B1: myc-tagged EBNA3C (residues 1–992) (natural protein)
chain: MESFEGQGDSRQSPDNERGDNVQTTGEHDQDPGPGPPSSGASERLVPEESYSRDQQPWGQSRGDENRGWMQRIRRRRRRRAALSGHLLDTEDNVPPWLPPHDITPYTARNIRDAACRAVKQSHLQALSNLILDSGLDTQHILCFVMAARQRLQDIRRGPLVAEGGVGWRHWLLTSPSQSWPMGYRTATLRTLTPVPNRVGADSIMLTATFGCQNAARTLNTFSATVWTPPHAGPREQERYAREAEVRFLRGKWQRRYRRIYDLIELCGSLHHIWQNLLQTEENLLDFVRFMGVMSSCNNPAVNYWFHKTIGNFKPYYPWNAPPNENPYHARRGIKEHVIQNAFRKAQIQGLSMLATGGEPRGDATSETSSDEDTGRQGSDVELESSDDELPYIDPNMEPVQQRPVMFVSRVPAKKPRKLPWPTPKTHPVKRTNVKTSDRSDKAEAQSTPERPGPSEQSSVTVEPAHPTPVEMPMVILHQPPPVPKPVPVKPTPPPSRRRRGACVVYDDDVIEVIDVETTEDSSSVSQPNKPHRKHQDGFQRSGRRQKRAAPPTVSPSDTGPPAVGPPAAGPPAAGPPAAGPPAAGPPAAGPPAAGPRILAPLSAGPPAAGPHIVTPPSARPRIMAPPVVRMFMRERQLPQSTGRKPQCFWEMRAGREITQMQQEPSSHLQSATQPTTPRPSWAPSVCALSVMDAGKAQPIESSHLSSMSPTQPISHEEQPRYEDPDAPLDLSLHPDVAAQPAPQAPYQGYQEPPAPQAPYQGYQEPPPPQAPYQGYQEPPAHGLQSSSYPGYAGPWTPRSQHPCYRHPWAPWSQDPVHGHTQGPWDPRAPHLPPQWDGSAGHGQDQVSQFPHLQSETGPPRLQLSLVPLVSSSAPSWSSPQPRAPIRPIPTRFPPPPMPLQDSMAVGCDSSGTACPSMPFASDYSQGAFTPLDINATTPKRPRVEESSHGPARCSQATAEAQEILSDNSEISVFPKDAKQTDYDASTESELD
  proliferation of G418-selected Saos-2 cells after serum starvation and 5 µM etoposide, counted for 6 days: E2F1 plus EBNA3C against E2F1 alone or E2F1 plus EBNA3C residues 366-620: ~4 fold
